Assays:
[1] = tested on: MS2 coat protein; test: apparent KD of MS2 coat protein, switch OFF state (with FMN for OFF switches, without FMN for ON switches); designed switch direction (-1 OFF switch, 1 ON switch): 1; higher = weaker reporter binding; details: FMN input: 0 or 200 uM; Eterna round: R93 (includes R88 designs)
Summary of the method: (§1)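 Designed RNA switches were transcribed on-chip from Illumina sequencing clusters. They were then titrated with SNAP-549-labelled MS2 coat protein (twofold steps, 0.7 or 1.5 nM to 3 µM; 0.8–1.5 h to 10–20 min per step) in 100 mM Tris-HCl pH 7.5, 80 mM KCl, 4 mM MgCl2, without or with constant ligand. Apparent KD is the per-design median of normalised cluster binding-curve fits.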

[2] = tested on: MS2 coat protein; test: apparent KD of MS2 coat protein, switch ON state; designed switch direction (-1 OFF switch, 1 ON switch): 1; higher = weaker reporter binding; details: FMN input: 0 or 200 uM; Eterna round: R93 (includes R88 designs)
Summary of the method: as §1

| Sequence | apparent KD of MS2 coat protein [1] | apparent KD of MS2 coat protein [2] |
| --- | --- | --- |
| AACAAUCUAUCUGAGGAUAUAUGUCAAAAGACAUGAGGAUCACCCAUGUAAAAACAUGAAAAAUCAUAGAAGGCAGAUAGAUUGA [SS2: 1135] | 88.3 nM | 67.3 nM |
| AACAAUCUAUCUGAGGAUAUAUGUCAAAAGACAUGAGGAUCACCCAUGUAAAAACAUGAAAAGACAUAGAAGGCAGAUAGAUUGA [SS2: 1133] | 35.1 nM | 25.4 nM |
| AACAAUCUAUCUGAGGAUAUCAUAAAAAAGACAUGAGGAUCACCCAUGUAGCAGGAAACUGCAUAUGAGAAGGCAGAUAGAUUGA [SS2: 1122] | 18.1 nM | 29.6 nM |
| AACAAUCUAUCUGAGGAUAUCAUGUAAAAGACAUGAGGAUCACCCAUGUAGCAGGAAACUGCAUAUGAGAAGGCAGAUAGAUUGA [SS2: 1120] | 21.3 nM | 18.4 nM |
| AACAAUCUAUCUGAGGAUAUGUGUCAAAAGACAUGAGGAUCACCCAUGUAAAAACAUGGAAAAACACAGAAGGCAGAUAGAUUGA [SS2: 1149] | 75.4 nM | 62.1 nM |
| AACAAUCUAUCUGAGGAUAUGUGUCGAAAGACAUGAGGAUCACCCAUGUAAAAACAUGGGAAGAUACAGAAGGCAGAUAGAUUGA [SS2: 1161] | 29.3 nM | 203 nM |
| AACAAUCUAUCUGAGGAUAUGUGUCGAAAGACAUGAGGAUCACCCAUGUGAAAACAUGAAAAGAUACAGAAGGCAGAUAGAUUGA [SS2: 1155] | 35.9 nM | 26.6 nM |
| AAGAAACAUGAGGAUCACCCAUGUAAACUCGAGAGAGGAUAUGGUACAUGGAAGAUCCAACUAGAAGGCUCUGGAG | 17.6 nM | 38.6 nM |
| AAGAAACAUGAGGAUCACCCAUGUACCCAAAACGGAGGAUAUGGGAAAGAAAGAAAGAAACCAGAAGGCCGAUGAA [Amyrtaeus] | 88.8 nM | 25.9 nM |
| AAGAAACAUGAGGAUCACCCAUGUACCCAAAAGGGAGGAUAUGGAAAAGAAAGAAAGAAACCAGAAGGCCCAUGAA [Artabanus the Hyrcanian] | 22.2 nM | 10.8 nM |
| AAGAAACAUGAGGAUCACCCAUGUAGAAAUAUGGGAGGAUAUACGAAGACGAAAGUCAAAGUAGAAGGCCUAAAAG [Mat - Same State 1 - Eli mod - D107] | 68.7 nM | 21 nM |
| AAGAAACAUGAGGAUCACCCAUGUGAAAUAAACACAGGAUAUGCGAAAAGAAACAAAGAAGCAGAAGGGUGAAGAA [Mat - Same State 1 - Tesla mod - 57] | 44.1 nM | 15.1 nM |
| AAGAAACAUGAGGAUCACCCAUGUGAGAUAAACACAGGAUAUGCAAAAGAAAGAAAGAAAGCAGAAGGGUGAAGAA [Mat - Same State 1 - Tesla mod - 51] | 129 nM | 21.6 nM |
| AAGAAACAUGAGGAUCACCCAUGUGAGAUAAACACAGGAUAUGCGAAAAGAAAUAAAGAAGCAGAAGGGUGAAGAA [Mat - Same State 1 - Tesla mod - 71] | 94.1 nM | 20.5 nM |
| AAGAAAGAAACAUAGGAUAUCAAGAAUAUAACAUGAGGAUCACCCAUGUAAAUACGAAAGUAUAAUGAGAAGGAUGGAUGAUCUUC [Mat - Mod of Meechl] | 34.5 nM | 24.3 nM |
| AAGAAAGAAACGCAGGAUAUGCAAAACAAAACAUGAGGAUCACCCAUGUCUUACUUACAAACAAAGCAGAAGGGCGAAAGAAAGAA [Same State 2 B] | 20 nM | 16.4 nM |
| AAGAAAGAAACGUAGGAUAUCAAGAAUAUAACAUGAGGAUCACCCAUGUAAAUACGAAAGUAUAAUGAGAAGGAUGGAUGAUCUUC [Mod of Mat of Meechl] | 32.8 nM | 22.7 nM |
| AAGCAACAUGAGGAUCACCCAUGUAGCAGGGUCAGAGGAUAUUUGAUCUUGGUAAGGGUUAAAGAAGGUUGAUAAA [Ceralete] | 91.1 nM | 159 nM |
| AAUACACAUGGUCAGGAUAUCGCAGCUAGGACAUGAGGAUCACCCAUGUAAUAAGUAAAAGUAAAUGAGAAGGGACAGGGUGACC [JR_SS002_Sub405] | 206 nM | 520 nM |
| AAUAUAUUAAGUGAGGAUAUCAAGAAAAAAACAUGAGGAUCACCCAUGUGGGAAACAUGGUAGGGUGAGAAGGUACUUAAUAUAU [Samwise Clockwise 21 - Jieux - Same State 2] | 691 nM | 228 nM |
| AAUAUAUUAAGUGAGGAUAUCAUAGGAAAAACAUGAGGAUCACCCAUGUGGGAAACCUGGUCGGGUGAGAAGGUGCUUAAUAUAU [Samwise Clockwise 32 - Jieux - Same State 2] | 235 nM | 50.6 nM |
